We go through one molecule from paper PMC10502657 (Advanced Science, 2023).

For one test, the target named is T1, Flag–p53 (UniProt P04637 1-393).
T1 construct: p53; also called Flag-tagged p53; source: HEK293T, transfected, in lysate
In words: pull-down; GST-fusion proteins immobilised on glutathione beads incubated with purified Flag-tagged proteins in 50 mM Tris-HCl pH 7.4, 150 mM NaCl, 0.5% Triton X-100 for 4 h at 4 °C; western blot. Particulars: both partners purified.

Another test deals with T2, Flag–USP7 (UniProt Q93009 1-1102).
T2 construct: ubiquitin-specific protease 7 (USP7); also called Flag-tagged USP7; source: HEK293T, transfected, in lysate
Described as above. The note with it: both partners purified.

T2 sequence (Q93009 whole entry): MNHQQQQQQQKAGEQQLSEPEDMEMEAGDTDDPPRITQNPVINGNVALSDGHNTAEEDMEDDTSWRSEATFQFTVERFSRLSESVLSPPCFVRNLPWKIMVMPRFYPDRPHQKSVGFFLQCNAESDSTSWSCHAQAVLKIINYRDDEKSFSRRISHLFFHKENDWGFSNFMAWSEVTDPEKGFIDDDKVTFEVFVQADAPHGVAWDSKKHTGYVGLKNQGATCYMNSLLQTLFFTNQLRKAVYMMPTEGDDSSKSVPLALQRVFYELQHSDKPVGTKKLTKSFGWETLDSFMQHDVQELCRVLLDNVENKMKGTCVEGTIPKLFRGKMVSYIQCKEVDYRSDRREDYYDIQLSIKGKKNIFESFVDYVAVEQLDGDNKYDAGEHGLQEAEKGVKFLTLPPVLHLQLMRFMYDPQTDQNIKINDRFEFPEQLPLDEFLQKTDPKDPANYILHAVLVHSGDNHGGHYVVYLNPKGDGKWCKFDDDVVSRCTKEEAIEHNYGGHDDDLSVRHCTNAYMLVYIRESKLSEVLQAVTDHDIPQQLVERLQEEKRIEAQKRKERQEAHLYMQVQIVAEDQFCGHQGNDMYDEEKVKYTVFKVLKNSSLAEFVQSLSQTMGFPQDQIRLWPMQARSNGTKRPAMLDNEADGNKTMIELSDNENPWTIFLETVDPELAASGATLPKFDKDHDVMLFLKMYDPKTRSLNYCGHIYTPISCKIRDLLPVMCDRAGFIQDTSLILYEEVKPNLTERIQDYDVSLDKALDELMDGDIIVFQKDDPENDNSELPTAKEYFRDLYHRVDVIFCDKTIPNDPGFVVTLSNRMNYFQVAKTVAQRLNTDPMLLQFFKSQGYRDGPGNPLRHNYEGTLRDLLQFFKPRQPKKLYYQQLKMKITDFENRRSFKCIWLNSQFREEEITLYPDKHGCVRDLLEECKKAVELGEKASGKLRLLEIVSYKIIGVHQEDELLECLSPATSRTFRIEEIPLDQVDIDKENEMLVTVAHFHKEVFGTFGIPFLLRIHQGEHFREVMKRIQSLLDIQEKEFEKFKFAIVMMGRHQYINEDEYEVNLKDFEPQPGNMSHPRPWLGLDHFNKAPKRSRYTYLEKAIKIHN
T1 sequence (P04637 whole entry): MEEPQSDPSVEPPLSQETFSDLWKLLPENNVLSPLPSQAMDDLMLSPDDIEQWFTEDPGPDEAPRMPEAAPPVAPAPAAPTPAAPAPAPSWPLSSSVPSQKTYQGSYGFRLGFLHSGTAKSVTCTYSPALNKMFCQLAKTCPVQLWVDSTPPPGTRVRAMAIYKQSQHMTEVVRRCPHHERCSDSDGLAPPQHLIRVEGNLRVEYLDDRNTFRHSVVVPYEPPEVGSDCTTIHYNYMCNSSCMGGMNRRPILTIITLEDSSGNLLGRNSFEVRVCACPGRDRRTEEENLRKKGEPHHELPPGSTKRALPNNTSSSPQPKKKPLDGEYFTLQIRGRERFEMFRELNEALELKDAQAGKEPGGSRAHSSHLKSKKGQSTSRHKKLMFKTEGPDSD

B1: GST–MLF2 (natural protein, UniProt Q15773 1-248, looked up)
chain: MFRFMRDVEPEDPMFLMDPFAIHRQHMSRMLSGGFGYSPFLSITDGNMPGTRPASRRMQQAGAVSPFGMLGMSGGFMDMFGMMNDMIGNMEHMTAGGNCQTFSSSTVISYSNTGDGAPKVYQETSEMRSAPGGIRETRRTVRDSDSGLEQMSIGHHIRDRAHILQRSRNHRTGDQEERQDYINLDESEAAAFDDEWRRETSRFRQQRPLEFRRLESSGAGGRRAEGPPRLAIQGPEDSPSRQSRRYDW
notes: myeloid leukemia factor 2 (MLF2); also called glutathione-S-transferase (GST) tagged MLF2
Consider B1, for which the binding result in the test with Flag–p53 and with Flag–USP7 was “binds” throughout.
